Experimental data: PMC10288512, “MUC1 Glycopeptide Vaccine Modified with a GalNAc Glycocluster Targets the Macrophage Galactose C-type Lectin on Dendritic Cells to Elicit an Improved Humoral Response” (Journal of the American Chemical Society, 2023)

What was measured:
[1] = biological target: MGL receptor on murine bone marrow-derived dendritic cells (mouse (endogenous in BMDCs)) (UniProt Q8JZN1)
[2] = biological target: peptide 13, MUC1 tandem repeat (glyco)peptide with the TPEaa trivalent alpha-S-GalNAc glycocluster 1 at the N-terminus, biotinylated; assay: ELISA; biotinylated peptides 9-14 coupled to streptavidin-coated plates at twofold serial dilutions; probed with recombinant MGL-Fc at a constant concentration; detection with goat anti-human Fc-peroxidase; EC50 from curve fitting over the peptide concentration
[3] = biological target: peptide 14, MUC1 tandem repeat (glyco)peptide with a triethylene glycol spacer and the TPEaa trivalent alpha-S-GalNAc glycocluster 1 at the N-terminus, biotinylated; assay: as above
[4] = biological target: peptide 12, MUC1 tandem repeat peptide with the TPEaa trivalent alpha-S-GalNAc glycocluster 1 at the N-terminus, biotinylated; assay: as above

Sequence of UniProt Q8JZN1 (Q8JZN1 entry or part of it): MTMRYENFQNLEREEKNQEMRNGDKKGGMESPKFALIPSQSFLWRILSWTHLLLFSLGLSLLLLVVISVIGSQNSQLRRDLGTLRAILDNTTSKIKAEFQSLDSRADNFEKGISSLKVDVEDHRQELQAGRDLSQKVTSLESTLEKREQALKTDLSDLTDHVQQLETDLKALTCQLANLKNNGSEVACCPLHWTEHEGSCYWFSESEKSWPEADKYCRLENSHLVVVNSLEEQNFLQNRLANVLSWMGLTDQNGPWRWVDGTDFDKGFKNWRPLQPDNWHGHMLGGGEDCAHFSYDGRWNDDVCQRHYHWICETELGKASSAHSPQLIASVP

peptide 12, MUC1 tandem repeat peptide with the TPEaa trivalent alpha-S-GalNAc glycocluster 1 at the N-terminus, biotinylated
decrease in accessible MGL on the BMDC surface (anti-MGL antibodies, flow cytometry) after treatment with peptide 12 for 30 min at 37 °C, against untreated cells [1]: 48%

B1: recombinant MGL (macrophage galactose-type lectin) tagged with a human IgG1 Fc fragment (Fc fusion)
chain: QNSKFQRDLVTLRTDFSNFTSNTVAEIQALTSQGSSLEETIASLKAEVEGFKQERQAGVSELQEHTTQKAHLGHCPHCPSVCVPVHSEMLLRVQQLVQDLKKLTCQVATLNNNASTEGTCCPVNWVEHQDSCYWFSHSGMSWAEAEKYCQLKNAHLVVINSREEQNFVQKYLGSAYTWMGLSDPEGAWKWVDGTDYATGFQNWKPGQPDDWQGHGLGGGEDCAHFHPDGRWNDDVCQRPYHWVCEAGLGQTSQESH
EC50 [2]: 3.9 nM | fold avidity against peptide 11 [2]: 10 fold | EC50 [3]: 2.65 nM | fold avidity against peptide 11 [4]: 10 fold
